According to patent US20240034774A1 (Gilead, published 2024):
Numbering of substitutions follows the chain as printed.

B1: 1.1.9-1 (antibody, human IgG1, kappa)
heavy: QVQLLQSGAAVTKPGASVRVSCEASGYNIRDYFIHWWRQAPGQGLQWVGWINPKTGQPNNPRQFQGRVSLTRHASWDFDTFSFYMDLKALRSDDTAVYFCARQRSDYWDFDVWGSGTQVTVSSASTKGPSVFPLAPSSKSTSGGTAALGCLVKDYFPEPVTVSWNSGALTSGVHTFPAVLQSSGLYSLSSVVTVPSSSLGTQTYICNVNHKPSNTKVDKKVEPKSCDKTHTCPPCPAPELLAGPDVFLFPPKPKDTLMISRTPEVTCVVVDVSHEDPEVKFNWYVDGVEVHNAKTKPREEQYNSTYRVVSVLTVLHQDWLNGKEYKCKVSNKALPLPEEKTISKAKGQPREPQVYTLPPSREEMTKNQVSLTCLVKGFYPSDIAVEWESNGQPENNYKTTPPVLDSDGSFFLYSKLTVDKSRWQQGNVFSCSVLHEALHSHYTQKSLSLSPGK
light: DIQMTQSPSSLSASVGDTVTITCQANGYLNWYQQRRGKAPKLLIYDGSKLETGVPSRFSGRRWGQEYNLTINNLQPEDIATYFCQVYEFVVPGTRLDLKRTVAAPSVFIFPPSDEQLKSGTASVVCLLNNFYPREAKVQWKVDNALQSGNSQESVTEQDSKDSTYSLSSTLTLSKADYEKHKVYACEVTHQGLSSPVTKSFNRGEC
B2: 1.1.27-1 (antibody, human IgG1, kappa)
heavy: B1 heavy
light: B1 light with T52R, L96V, L98I
B3: 1.1.15-1 (antibody, human IgG1, kappa)
heavy: B1 heavy
light: B1 light with T52R, V90F
B4: 1.1.25-1 (antibody, human IgG1, kappa)
heavy: B1 heavy
light: B1 light with T52R, R95N, L96V
B5: 1.1.22-1 (antibody, human IgG1, kappa)
heavy: B1 heavy
light: B1 light with T52R, V91S, R95N
B6: 1.1.18-1 (antibody, human IgG1, kappa)
heavy: B1 heavy
light: B1 light with T52R, V91S
B7: 1.1.20-1 (antibody, human IgG1, kappa)
heavy: B1 heavy
light: B1 light with T52R, R95N
B8: 1.1.10-1 (antibody, human IgG1, kappa)
heavy: B1 heavy
light: B1 light with T52R, N68T
B9: 1.1.26-1 (antibody, human IgG1, kappa)
heavy: B1 heavy
light: B1 light with T52R, L98I
B10: 1.1.30-1 (antibody, human IgG1, kappa)
heavy: B1 heavy
light: B1 light with T52R, V91T, R95N, L96V, L98I
B11: 1.1.29-1 (antibody, human IgG1, kappa)
heavy: B1 heavy
light: B1 light with T52R, V91G, R95N, L96V, L98I
B12: 1.1.28-1 (antibody, human IgG1, kappa)
heavy: B1 heavy
light: B1 light with T52R, R95N, L96V, L98I
B13: 1.1.17-1 (antibody, human IgG1, kappa)
heavy: B1 heavy
light: B1 light with T52R, V90F, V91G
B14: 1.1.12-1 (antibody, human IgG1, kappa)
heavy: B1 heavy
light: B1 light with T52R, N72S, N73S
B15: 1.1.23-1 (antibody, human IgG1, kappa)
heavy: B1 heavy
light: B1 light with T52R, V91T, R95N
B16: 1.1.35-1 (antibody, human IgG1, kappa, V domains shown)
VH: QVQLLQSGAAVTKPGASVRVSCEASGYNIRDYFIHWWRQAPGQGLQWVGWINPKTGQPNNPRQFQGRVSLTRHASWDFDTFSFYMDLKALRSDDTAVYFCARQRSDYWDFDVWGSGTQVTVSS
VL: DIQMTQSPSSLSASVGDRVTITCQANGYLNWYQQKPGKAPKLLIYDGSNLETGVPSRFSGSRWGQEYTLTISSLQPEDIATYFCQVYEFVGPGTNLDIKR
B17: 1.1.32-1 (antibody, human IgG1, kappa)
heavy: B1 heavy
light: B1 light with T52R, N68T, N72S, N73S, V91T
B18: 1.1.36-1 (antibody, human IgG1, kappa)
heavy: B1 heavy
light: DIQMTQSPSSLSASVGDRVTITCQANGYLNWYQQKPGKAPKLLIYDGSNLETGVPSRFSGSRWGQEYTLTISSLQPEDIATYFCQVYEFVTPGTNLDIKRTVAAPSVFIFPPSDEQLKSGTASVVCLLNNFYPREAKVQWKVDNALQSGNSQESVTEQDSKDSTYSLSSTLTLSKADYEKHKVYACEVTHQGLSSPVTKSFNRGEC
B19: 1.1.21-1 (antibody, human IgG1, kappa)
heavy: B1 heavy
light: B1 light with T52R, V91G, R95N
B20: 1.1.13-1 (antibody, human IgG1, kappa)
heavy: B1 heavy
light: B1 light with T52R, R61S, N68T, N72S, N73S
B21: 1.1.19-1 (antibody, human IgG1, kappa)
heavy: B1 heavy
light: B1 light with T52R, V91T
B22: 1.1.33-1 (antibody, human IgG1, kappa)
heavy: B1 heavy
light: B18 light with R18T, K35R, P36R, T52R, S61R, T91V
B23: 1.1.34-1 (antibody, human IgG1, kappa)
heavy: B1 heavy
light: B18 light with R18T, K35R, P36R, T52R, S61R, N95R
B24: 1.1.11-1 (antibody, human IgG1, kappa)
heavy: B1 heavy
light: B1 light with T52R, R61S, N68T
B25: 1.1.16-1 (antibody, human IgG1, kappa)
heavy: B1 heavy
light: B1 light with T52R, V91G
B26: 1.1.24-1 (antibody, human IgG1, kappa)
heavy: B1 heavy
light: B1 light with T52R, L96V
B27: 1.1.31-1 (antibody, human IgG1, kappa)
heavy: B1 heavy
light: B1 light with T52R, N68T, N72S, N73S, R95N

Tests used:
BSA = BSA (UniProt P02769 25-607); experiment: single-point ELISA, BSA control
gp120 Bal = gp120 Bal (HIV (Bal)); experiment: single-point ELISA at EC50 conc. of A-1
gp120 SHIV SF162 P3 = gp120 SHIV SF162 P3 (SHIV SF162 P3); experiment: single-point ELISA at EC50 conc. of A-1
gp120 CAAN = gp120 CAAN (HIV (CAAN)); experiment: single-point ELISA at EC50 conc. of A-1

| Binder | ELISA A450 (BSA) [A450] | ELISA A450 (gp120 Bal) [A450] | ELISA A450 (gp120 SHIV SF162 P3) [A450] | ELISA A450 (gp120 CAAN) [A450] |
| --- | --- | --- | --- | --- |
| B1 | 0.07 | 0.98 | 1.09 | 0.93 |
| B2 | 0.06 | 0.97 | 1.1 | 0.99 |
| B3 | 0.06 | 0.93 | 0.79 | 0.79 |
| B4 | 0.07 | 0.9 | 1.01 | 0.92 |
| B5 | 0.06 | 0.88 | 1.04 | 1.02 |
| B6 | 0.06 | 0.92 | 0.94 | 0.92 |
| B7 | 0.07 | 0.94 | 1.01 | 0.95 |
| B8 | 0.06 | 0.94 | 1.02 | 1.1 |
| B9 | 0.06 | 0.96 | 1.09 | 1.07 |
| B10 | 0.06 | 0.9 | 0.98 | 0.86 |
| B11 | 0.06 | 0.91 | 0.9 | 1.01 |
| B12 | 0.06 | 0.98 | 1.09 | 0.93 |
| B13 | 0.06 | 1.02 | 1.07 | 0.9 |
| B14 | 0.06 | 1.05 | 1.13 | 1.02 |
| B15 | 0.06 | 0.9 | 1.07 | 0.95 |
| B16 | 0.08 | 0.96 | 0.72 | 0.75 |
| B17 | 0.06 | 0.93 | 0.89 | 1.04 |
| B18 | 0.06 | 0.93 | 0.72 | 0.88 |
| B19 | 0.06 | 0.98 | 1.03 | 0.99 |
| B20 | 0.06 | 0.94 | 0.97 | 1.11 |
| B21 | 0.06 | 1.03 | 1.12 | 1.05 |
| B22 | 0.07 | 0.87 | 0.84 | 0.94 |
| B23 | 0.06 | 0.9 | 0.83 | 0.96 |
| B24 | 0.06 | 0.92 | 0.93 | 1.03 |
| B25 | 0.06 | 1.06 | 1.05 | 0.99 |
| B26 | 0.06 | 0.88 | 0.97 | 0.98 |
| B27 | 0.06 | 0.87 | 0.87 | 0.96 |
